Data taken from article PMC9204724 (iScience, 2022).
Read-outs that look alike come from different tables or passages of the source.

Key:
[1] = target: T1, acto-Myo1C^0-ΔTH1 (no Tpm) (Homo sapiens, UniProt O00159); assay type: binding
[2] = target: T1, acto-Myo1C^0-ΔTH1 (no Tpm); test: stopped-flow, pyrene-actin fluorescence, K0.[…] of fast phase vs [ATP]; assay type: binding
[3] = target: chicken skeletal muscle α-actin, filamentous (chicken) (UniProt P68139); test: stopped-flow kinetics
[4] = target: α-actin–Tpm3.1 cofilament (chicken | human) (UniProt P68139); test: stopped-flow kinetics
[5] = target: α-actin–Tpm1.7 cofilament (chicken | human) (UniProt P68139); test: stopped-flow kinetics
[6] = target: β-actin–AcTpm3.1 cofilament (human) (UniProt P60709)
[7] = target: β-actin–Tpm4.2 cofilament (human) (UniProt P60709)
[8] = target: β-actin–Tpm1.6 cofilament (human) (UniProt P60709)
[9] = target: β-actin–Tpm3.1 cofilament (human) (UniProt P60709)
[10] = target: β-actin–AcTpm1.6 cofilament (human) (UniProt P60709)
[11] = target: β-actin–AcTpm2.1 cofilament (human) (UniProt P60709)
[12] = target: β-actin–Tpm2.1 cofilament (human) (UniProt P60709)
[13] = target: β-actin–AcTpm4.2 cofilament (human) (UniProt P60709)
[14] = target: human β-actin, filamentous (human) (UniProt P60709)

T1 sequence (O00159 36-891, stated change not applied): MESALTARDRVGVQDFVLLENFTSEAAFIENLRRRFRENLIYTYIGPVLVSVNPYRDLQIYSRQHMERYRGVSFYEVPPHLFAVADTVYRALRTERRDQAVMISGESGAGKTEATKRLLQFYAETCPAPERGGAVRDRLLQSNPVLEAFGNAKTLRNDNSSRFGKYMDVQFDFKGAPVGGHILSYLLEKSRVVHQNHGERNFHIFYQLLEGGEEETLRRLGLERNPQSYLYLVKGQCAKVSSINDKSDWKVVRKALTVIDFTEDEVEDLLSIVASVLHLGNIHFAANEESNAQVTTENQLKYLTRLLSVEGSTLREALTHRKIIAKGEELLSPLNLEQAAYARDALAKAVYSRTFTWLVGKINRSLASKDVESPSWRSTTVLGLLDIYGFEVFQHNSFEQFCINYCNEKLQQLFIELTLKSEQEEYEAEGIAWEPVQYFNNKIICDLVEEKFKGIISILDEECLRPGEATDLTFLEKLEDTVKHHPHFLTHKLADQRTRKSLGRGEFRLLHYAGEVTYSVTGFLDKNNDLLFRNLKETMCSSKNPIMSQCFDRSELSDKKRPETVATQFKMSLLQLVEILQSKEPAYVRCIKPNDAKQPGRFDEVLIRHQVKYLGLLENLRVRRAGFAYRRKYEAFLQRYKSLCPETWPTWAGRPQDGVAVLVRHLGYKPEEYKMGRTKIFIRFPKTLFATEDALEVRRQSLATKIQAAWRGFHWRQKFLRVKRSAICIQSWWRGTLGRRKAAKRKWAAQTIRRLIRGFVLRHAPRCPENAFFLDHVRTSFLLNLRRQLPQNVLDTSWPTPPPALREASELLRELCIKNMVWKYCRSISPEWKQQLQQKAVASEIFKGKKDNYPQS

Nc1ncnc2c1ncn2[C@@H]1O[C@H](COP(=O)(O)OP(=O)(O)O)[C@@H](O)[C@H]1O [ADP]
Kd [1]: 460 ± 80 nM

Nc1ncnc2c1ncn2[C@@H]1O[C@H](COP(=O)(O)OP(=O)(O)OP(=O)(O)O)[C@@H](O)[C@H]1O [ATP]
Kd [2]: 154000 ± 31000 nM

human Myo1C^0-ΔTH1, tail truncated myosin-1C isoform C^0, co-produced with calmodulin (from UniProt P0DP23 1-149) (complex)
Kd [3]: 13.7 nM
kon [3]: 1.46e+06 M⁻¹ s⁻¹
Kd [4]: 18.4 nM
kon [4]: 1.36e+06 M⁻¹ s⁻¹
Kd [5]: 19.6 nM
kon [5]: 1.33e+06 M⁻¹ s⁻¹

human non-muscle myosin-2A heavy meromyosin (NM-2A-HMM) with essential and regulatory light chains, phosphorylated (from UniProt P35579-1;P60660-1;O14950) (complex)
Kapp of the actin-activated steady-state ATPase (Michaelis–Menten fit, 30 °C) [6]: 26.6 µM
Kapp of the actin-activated steady-state ATPase (Michaelis–Menten fit, 30 °C) [7]: 26.2 µM
kcat/Kapp of the actin-activated steady-state ATPase (30 °C) [7]: 11200 M⁻¹ s⁻¹
Kapp of the actin-activated steady-state ATPase (Michaelis–Menten fit, 30 °C) [8]: 27.8 µM
kcat/Kapp of the actin-activated steady-state ATPase (30 °C) [8]: 12400 M⁻¹ s⁻¹
Kapp of the actin-activated steady-state ATPase (Michaelis–Menten fit, 30 °C) [9]: 19.6 µM
kcat/Kapp of the actin-activated steady-state ATPase (30 °C) [9]: 29100 M⁻¹ s⁻¹
Kapp of the actin-activated steady-state ATPase (Michaelis–Menten fit, 30 °C) [10]: 17.7 µM
kcat/Kapp of the actin-activated steady-state ATPase (30 °C) [10]: 17400 M⁻¹ s⁻¹
Kapp of the actin-activated steady-state ATPase (Michaelis–Menten fit, 30 °C) [11]: 40.9 µM
Kapp of the actin-activated steady-state ATPase (Michaelis–Menten fit, 30 °C) [12]: 37.8 µM
kcat/Kapp of the actin-activated steady-state ATPase (30 °C) [12]: 10200 M⁻¹ s⁻¹
Kapp of the actin-activated steady-state ATPase (Michaelis–Menten fit, 30 °C) [13]: 26.1 µM
kcat/Kapp of the actin-activated steady-state ATPase (30 °C) [13]: 23400 M⁻¹ s⁻¹

human tropomyosin Tpm1.8, non-acetylated (natural protein)
Tdiss [14]: 41.6 °C
